Experiments:
Details in all cases: both partners purified
[1] = target: T1, apo-LgnB-A1-T0 didomain (NRPS subunit LgnB) (RED-tris-NTA label (in the MST experiment only)); assay: MST; LgnB labelled with RED-tris-NTA, 25 nM, as target; LgnA as ligand, 10 to 0.000305 µM; HBS-ET (10 mM HEPES, 150 mM NaCl, 3 mM EDTA, 0.005% Tween-20, pH 8.0); 25 °C; Monolith NT.115
T1 construct: LgnB, NRPS subunit with domains A1-T0, encoded by lgnB of the legonmycin (lgn) biosynthetic gene cluster, amplified from cosmid 7G1; about 65 kDa; apo form (no phosphopantetheine); Cloned into EcoRI/HindIII of pET-28a(+); MA37; source: E. coli BL21-CodonPlus (DE3)-RP, purified (Ni-NTA; gel filtration on Superdex 75 for ITC); not shown: His6, N-terminal, kept

[2] = target: T2, apo-LgnD (NRPS subunit, C1-T1-C2-A2-T2-TE); assay: ITC; LgnA (125 µM) titrated into LgnD or truncated LgnD (25 µM), also into LgnB (concentrations for LgnB not told); thirteen 3 µL injections, 25 °C; one set binding model; MicroCal PEAQ-ITC
T2 construct: LgnD, NRPS subunit with domains C1-T1-C2-A2-T2-TE, encoded by lgnD of the legonmycin (lgn) biosynthetic gene cluster, amplified from cosmid 7G1; about 207 kDa; apo form (no phosphopantetheine); Cloned into NdeI/XhoI of pEHISTEVa; MA37; also called full-length LgnD; source: E. coli BL21-CodonPlus (DE3)-RP, purified (Ni-NTA; gel filtration on Superdex 75 for ITC)

[3] = target: T3, apo-LgnD-C1-T1 didomain (truncated LgnD); assay: as above
T3 chain: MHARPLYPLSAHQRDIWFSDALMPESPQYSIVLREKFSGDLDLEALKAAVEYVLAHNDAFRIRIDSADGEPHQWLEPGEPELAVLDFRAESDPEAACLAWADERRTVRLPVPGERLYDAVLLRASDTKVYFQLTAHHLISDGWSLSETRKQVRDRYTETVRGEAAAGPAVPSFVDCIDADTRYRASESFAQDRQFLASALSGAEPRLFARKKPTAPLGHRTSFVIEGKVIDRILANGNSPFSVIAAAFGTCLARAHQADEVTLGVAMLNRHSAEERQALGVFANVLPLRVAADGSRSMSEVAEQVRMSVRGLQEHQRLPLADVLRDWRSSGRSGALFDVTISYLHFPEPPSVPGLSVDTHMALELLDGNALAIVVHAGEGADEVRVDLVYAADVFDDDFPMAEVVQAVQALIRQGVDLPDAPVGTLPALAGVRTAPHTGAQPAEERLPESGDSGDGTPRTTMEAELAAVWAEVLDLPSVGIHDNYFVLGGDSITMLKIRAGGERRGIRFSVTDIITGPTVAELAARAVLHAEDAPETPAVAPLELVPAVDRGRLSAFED

[4] = target: T4, LgnD-T1 domain (truncated LgnD); assay: as above
T4 chain: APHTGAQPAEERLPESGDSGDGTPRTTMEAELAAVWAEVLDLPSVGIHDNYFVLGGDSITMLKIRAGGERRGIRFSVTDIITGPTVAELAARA

T1 sequence (main, as listed by the source): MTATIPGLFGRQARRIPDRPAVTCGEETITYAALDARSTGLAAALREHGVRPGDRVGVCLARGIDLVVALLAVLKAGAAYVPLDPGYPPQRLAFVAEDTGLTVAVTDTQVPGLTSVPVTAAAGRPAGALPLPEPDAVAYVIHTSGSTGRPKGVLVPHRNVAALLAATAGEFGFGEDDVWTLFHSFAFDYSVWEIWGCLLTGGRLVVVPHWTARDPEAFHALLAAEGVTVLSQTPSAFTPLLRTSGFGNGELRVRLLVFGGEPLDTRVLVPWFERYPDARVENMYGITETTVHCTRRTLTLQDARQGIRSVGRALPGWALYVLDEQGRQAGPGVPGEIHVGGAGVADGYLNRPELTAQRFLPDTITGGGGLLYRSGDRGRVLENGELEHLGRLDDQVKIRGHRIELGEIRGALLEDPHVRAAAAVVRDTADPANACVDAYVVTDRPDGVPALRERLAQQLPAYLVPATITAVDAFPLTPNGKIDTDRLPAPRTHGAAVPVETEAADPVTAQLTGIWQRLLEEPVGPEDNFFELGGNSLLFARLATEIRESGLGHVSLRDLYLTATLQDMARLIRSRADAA

B1: LgnA, type II thioesterase (TEII) orthologue (enzyme)
chain: MPVTLLCIPYAGAGASLFRRWKRHPFQHMDVAAVQLPGREELFADGPCTSMSELVDLCAGHIRELPQDAPFALFGHSFGALVAYETAQRLAAEGLRLPERLIVSGAAAPWLPRPVTDADSLSDDQFVARVRDVVGYDHPALHDAELRGLLLPSLRADLSISDRYAPGSTDPLPVPLTVLRGSDDRLVSRQDVELWAKAASQPTELIELPGDHMYFSLDPKPLLAELDAVFARSAA
Kd [1]: 1700 ± 813 nM
Kd [2]: 2550 ± 96 nM

B2: LgnA, type II thioesterase (TEII) orthologue (enzyme)
chain: B1 chain
modifications: apo form (no phosphopantetheine on Ser492)
Kd [3]: 1010 ± 227 nM

B3: LgnA, type II thioesterase (TEII) orthologue (enzyme)
chain: B1 chain
modifications: apo form (no phosphopantetheine on Ser492 of LgnD); limits from primers 28a-LgnD_T1-F/R
Kd [4]: 7.21 ± 1.61 µM

Source: article PMC8748450, “Aminoacyl chain translocation catalysed by a type II thioesterase domain in an unusual non-ribosomal peptide synthetase” (Nature Communications, 2022)
